# Reference: patent publication US7118877
# Like-named read-outs stand apart in the source and are kept apart here.
# T1: Ac-LEHD-Afc
# T1 sequence: LEHD
# T2: Ac-VEID-Afc
# T2 sequence: VEID
# T3: Ac-WEHD-Afc
# T3 sequence: WEHD
# T4: Ac-DEVD-Afc
# T4 sequence: DEVD
# T5: Ac-IETD-Afc
# T5 sequence: IETD
# T6: Ac-LEHD-Afc
# T6 chain: LEHD
# B1: Caspase 9 (protein)
# chain: MDEADRRLLRRCRLRLVEELQVDQLWDALLSRELFRPHMIEDIQRAGSGSRRDQARQLIIDLETRGSQALPLFISCLEDTGQDMLASFLRTNRQAAKLSKPTLENLTPVVLRPEIRKPEVLRPETPRPVDIGSGGFGDVGALESLRGNADLAYILSMEPCGHCLIINNVNFCRESGLRTRTGSNIDCEKLRRRFSSLHFMVEVKGDLTAKKMVLALLELAQQDHGALDCCVVVILSHGCQASHLQFPGAVYGTDGCPVSVEKIVNIFNGTSCPSLGGKPKLFFIQACGGEQKDHGFEVASTSPEDESPGSNPEPDATPFQEGLRTFDQLDAISSLPTPSDIFVSYSTFPGFVSWRDPKSGSWYVETLDDIFEQWAHSEDLQSLLLRVANAVSVKGIYKQMPGCFNFLRKKLFFKTS
# How the values were obtained:
# [1] = system: T1, Ac-LEHD-Afc
# [2] = system: T2, Ac-VEID-Afc
# [3] = system: T3, Ac-WEHD-Afc
# [4] = system: T4, Ac-DEVD-Afc
# [5] = system: T5, Ac-IETD-Afc
# [6] = biological target: T6, Ac-LEHD-Afc
molecule,measurement,setting,value
Caspase 1,"Optimum substrate at pH 7.2 (rate of AFC release, fluorogenic cleavage assay)",[1],"Ac-LEHD-Afc (SEQ ID NO:5),"
same,"Optimum substrate at pH 7.2 (rate of AFC release, fluorogenic cleavage assay)",[2],Ac-VEID-Afc (SEQ ID NO:6)
same,"Optimum substrate at pH 7.2 (rate of AFC release, fluorogenic cleavage assay)",[3],"Ac-WEHD-Afc (SEQ ID NO:4),"
Caspase 2,"Optimum substrate at pH 7.2 (rate of AFC release, fluorogenic cleavage assay)",[1],Ac-LEHD-Afc (SEQ ID NO:5)
Caspase 3,"Optimum substrate at pH 7.2 (rate of AFC release, fluorogenic cleavage assay)",[4],Ac-DEVD-Afc (SEQ ID NO:1)
Caspase 6,"Optimum substrate at pH 7.2 (rate of AFC release, fluorogenic cleavage assay)",[5],Ac-IETD-Afc (SEQ ID NO:2)
Caspase 7,"Optimum substrate at pH 7.2 (rate of AFC release, fluorogenic cleavage assay)",[4],Ac-DEVD-Afc (SEQ ID NO:1)
Caspase 8,"Optimum substrate at pH 7.2 (rate of AFC release, fluorogenic cleavage assay)",[1],Ac-LEHD-Afc (SEQ ID NO:5
Caspase 10,"Optimum substrate at pH 7.2 (rate of AFC release, fluorogenic cleavage assay)",[1],Ac-LEHD-Afc (SEQ ID NO:5)
same,"Optimum substrate at pH 7.2 (rate of AFC release, fluorogenic cleavage assay)",[5],"Ac-IETD-Afc (SEQ ID NO:2),"
B1,"Optimum substrate at pH 7.2 (rate of AFC release, fluorogenic cleavage assay)",[6],Ac-LEHD-Afc (SEQ ID NO:5
